Source: publication PMC9951875

Target: UspA2 (ubiquitous surface protein A2), displayed on E. coli BL21(DE3) (Moraxella catarrhalis Bc5) (UniProt Q9XD55)
Assay: fluorescence cell-binding titration (eluted FAM-aptamer)

Sequence | Kd
ATCCAGAGTGACGCAGCATGGGACGGTGCGGGGGAGGAGGATGAGCGTGGTCGTTGGGTGGCTGCCGCAATGTCGTTGGTGGCCC [FAM-Apt1] | 214 nM
GGGCCACCAACGACATTGCGGCAGCCACCCAACGACCACGCTCATCCTCCTCCCCCGCACCGTCCCATGCTGCGTCACTCTGGAT [FAM-Apt1_RC] | 3.4 nM
